Test: soluble on expression in E. coli; label from the status in PepcDB or PDB records

| Sequence | soluble on expression in E. coli |
| --- | --- |
| MIESKTYAVLGLGNGGHAFAAYLALKGQSVLAWDIDAQRIKEIQDRGAIIAEGPGLAGTAHPDLLTSDIGLAVKDADVILIVVPAIHHASIAANIASYISEGQLIILNPGATGGALEFRKILRENGAPEVTIGETSSMLFTCRSERPGQVTVNAIKGAMDFACLPAAKAGWALEQIGSVLPQYVAVENVLHTSLTNVNAVMHPLPTLLNAARCESGTPFQYYLEGITPSVGSLAEKVDAERIAIAKAFDLNVPSVCEWYKESYGQSPATIYEAVQGNPAYRGIAGPINLNTRYFFEDVSTGLVPLSELGRAVNVPTPLIDAVLDLISSLIDTDFRKEGRTLEKLGLSGLTAAGIRSAVE | soluble |
| MSQAAFVNPSILTWSRERAGLSAAQVARKLPVKPERVEEWESGEARPTFLQAQKWASVAHVPFGFLFLLQPPVEQLPLPDLRTVGNSAPLRPSLELLDTVKDAIRKQDWYLEYLHVQERQPLPFVGRFDSRTPVKTVVSDIRQTLGVDPEKSRLDYDKYSRALIDAAEVAGVLVMRSGIALGNTHRKLEVSEFRGFAISNPLAPVVFINSSDAPTARLFTLMHELAHIWIGSSGVSDAGTANGREEERFCNAVAGEFLVPEALFRTVWSASIEWESNLATLATRFHVSKLVIGRRAMDLGYVTQEQYGAYYQKILKAFRDEKGGAEDYYRNATAKNSTRLSKAVLTETLSGRMLLREAGNLLGVQPAKLRTLAAEHL | not soluble |
| MSLDRYLGFANSNLGRRLVDALGLPRPAPLERWQAGRLRPVEGALVLGGGPLAKQVEAIAPRLTDEVYSFNADNLQAEAWVAGLGPKIKAVVFDASHLSDSDALKQLREFFQPLLRSLAPCAHVLVLGRAPEGLDDPLASVAQRALEGFSRSLAKELRNGATAQLLYVAPGAEDQLEGALRFFLSPKSAFISGQVLRLQGCTSQVEDWTRPLGGRRALVTGAARGIGAAIAETLARDGADVLLLDVPQASKDLDALAARLGGKALPLDICASDAATQLLAALPDGIDIVVHNAGITRDKTLVNMTPEYWDAVLAVNLKAPQVLTQALYDNGALGENARITLLASVSGIAGNRGQANYAASKAGLIGLAQAWAPRLAERGGSINAIAPGFIETHMTAAMPMGLREAGRRLSSLGQGGSPQDVAEAIAWLSQPGSGSVNGQVLRVCGQALMGAEGHHHHHH | soluble |
| MRKLMTATAALCACAVTVSAGAAWADADVQPAGSVPIPDGPAQTWIVADLDSGQVLAGRDQNVAHPPASTIKVLLALVALDELDLNSTVVADVADTQAECNCVGVKPGRSYTARQLLDGLLLVSGNDAANTLAHMLGGQDVTVAKMNAKAATLGATSTHATTPSGLDGPGGSGASTAHDLVVIFRAAMANPVFAQITAEPSAMFPSDNGEQLIVNQDELLQRYPGAIGGKTGYTNAARKTFVGAAARGGRRLVIAMMYGLVKEGGPTYWDQAATLFDWGFALNPQASVGSL | soluble |
| MQFSKMHGLGNDFMVVDAVTQNVYFSPELIRRLADRHTGVGFDQMLVVEPPYDPELDFHYRIFNADGSEVSQCGNGARCFARFVRLKGLTNKREISVSTQTGRMILSVTEDEQVCVNMGEPDFEPQTVPFRAAKAEKTYILRAAEHTVLCGVVSMGNPHCVMQVDDVSVANVALLGPVLENHERFPERANIGFMQVVSRDHIRLRVYERGAGETQACGSGACAAVAVGVVQDLLNENVHVELPGGSLHIRWQGPGHPLYMTGPATHVYDGFIHL | not soluble |
| MAVSDNTFSMSTMFNALPNPTETSGYIPPSGFAPRASATPLHAALFNLMTDGDGVSYFKEMISKSDKTELQRMASLLTSDSDYFMSIVTTKFGSRRVQKLLGKSDDVDAFFCAAILRRFLHITTDKYASYVTIRAMVVFDKVMKKALYERILYHALDLACDQHGCIALNDIITDADDPYYRDQLLELVVSNALRLSNDASGNFVVQHVLTLYDSRCIHNIAVNLYGQCIELSFKKYGSYIVEKLLEVEESMVVVVVELLGCDGDRLMRLARNEFGNFVVVKALRFTKEMRMDLFWGLVQKLMPFIHLLRRSHGNNIANILDTFRLRC | soluble |
| DIELTQSPATLSVTPGNSVSISCRASQSLVNEDGNTYLFWYQQKSHESPRLLIKYASQSISGIPSRFSGSGSGTDFTLSINSVETEDLAVYFCQQITDWPFTFGGGTKLEIKRADAAPTVSIFPPSSEQLTSGGASVVCFLNNFYPKDINVKWKIDGSERQNGVLNSWTDQDSKDSTYSMSSTLTLTKDEYERHNSYTCEATHKTSTSPIVKSFNRNEC | soluble |
| MKLNKLFDSKTVVFKKSDKYGKSDCCKTKCVEGQIEFGVKIPTDFPAFNRALVTFLKTQKNQLNVDLDSFVELYKAENLCYKTALKVVVASITFCETTPFTMKTEPQKNVEVAVKCDSEHTSLIKEYEV | not soluble |

Source: the DeepSol protein solubility set
